Data published in patent US10184140B2, “Materials and methods for production of bi-functional fatty acids in recombinant bacteria” (IOWA STATE UNIVERSITY RESEARCH FOUNDATION, INC., priority 2013, dated 2019).
“Also recorded” adds a separate entry of the source. Read-outs that look alike come from different tables or passages of the source.

Experiments:
[1] = Kinetic parameters of aaKASIII and ecKASIII (spectrophotometric enzyme assay); type: biochemical
Method: Therefore, aaKASIII was assayed with 3-hydroxybutyryl-CoA as a substrate, and its specific activity was determined using an in vitro spectrophotometric enzyme assay. KASIII enzyme assays were carried out spectrophotometrically using 400 μM ACP, 400 μM malonyl-CoA, 10-400 μM various acyl-CoAs, 400 μM NADPH, 1 mM DTT, 6 mg/ml FabD, 1.5 mg/ml FabG, and either 4 mg/ml of aaKASIII or 9.5 mg/ml of ecKASIII. The specific activity for this reaction catalysed by aaKASIII was 5-fold and 3-fold higher with isobutyryl-CoA and 3-hydroxybutyryl-CoA, respectively, than that obtained with acetyl-CoA.

[2] = type: binding; conditions: ligand in 50-fold molar excess, relative to water control
[3] = Melting temperatures (Tm) of KASIII enzymes without ligand; type: physicochemical; conditions: in water, no ligand, baseline Tm
[4] = Saturation Transfer Difference NMR of KASIII enzymes with acetyl-CoA or isobutyryl-CoA; type: binding; conditions: protein/ligand 1:100, 25° C.
Method: NMR experiments were performed at 25° C. on a Bruker AV700 MHz spectrometer equipped with a 5 mm HCN cryoprobe. Samples for STD NMR experiments were prepared in 0.1 M sodium phosphate buffer (pH 7.4) with 5% D2O. The protein/ligand ratio was set as 1:100 with KASIII concentration in the 20-25 μM range. Saturation was applied as CW pulse with a power of 58-60 Hz, with on-resonance pulses at 0.62 ppm and 6.86 ppm for upfield and downfield, respectively. The off-resonance pulse was applied at 45 ppm. 3-9-19 WATERGATE suppression was used with a T1-ρ filter. Saturation time of five seconds with an additional delay of 5.1 seconds was used. A set of three replicates was acquired, with 32 scans in each replicate, for each STD NMR experiment of KASIII wild-type or mutated enzyme with a ligand, which was either acetyl-CoA or isobutyryl-CoA (Sigma-Aldrich, St. Louis, Mo.). The reference and the saturated spectra were obtained in an interleaved manner. Resonance assignments of 1H NMR spectra of free ligands were completed using ID 1H and COSY.
Control experiments were carried out by applying on- and off-resonance saturation pulses either to the ligand in the absence of protein, or to the ligand in the presence of denatured protein.
Relative STD effects (ASTD) were calculated according to the equation ASTD=(Io−Isat)/Io where Isat is the signal intensity of the saturated spectrum and Io is the signal intensity of the reference spectrum (Mayer et al., J. Am. Chem. Soc. 123: 6108-6117 (2001)). STD amplification factor was calculated according to the equation: STDaf=ASTD×molar ligand excess.
STD NMR experiments elucidated interactions of these purified enzymes (both wild-type and mutated) with straight-chain substrate (acetyl-CoA) and branched-chain substrate (isobutyryl-CoA) and enabled mapping of binding epitopes on the two substrates. Relative saturation transfer to each of the binding epitopes was measured and converted to the STD amplification factor (STDaf), which is an indicator of ligand binding (Mayer et al., J. Am. Chem. Soc. 123: 6108-6117 (2001)). Ligand epitopes with high STDaf values are assumed to receive higher saturation transfer from the enzyme, and thus are in close contact with the enzyme.

[5] = tested on: B. subtilis ΔyjaXΔyhfB mutant strain; test: Genetic complementation of B. subtilis ΔyjaXΔyhfB double mutant with KASIII genes; conditions: grown without exogenous branched-chain fatty acids, IPTG induced
Method: Genetic complementation of the B. subtilis ΔyjaXΔyhfB double mutant strain with aaKASIII, taKASIII or ecKASIII expression vectors was conducted using pUCB-erm-derived plasmids carrying the different KASIII ORF sequences. In these vectors each of the different KASIII ORFs were under the control of the Pspac promoter and were inserted between the downstream and upstream DNA fragments of the 135-bp ORF in the ΔyhfB allele of the ΔyjaXΔyhfB::erm double mutant.
The B. subtilis ΔyjaXΔyhfB mutant strain was used as a vehicle to screen for KASIII enzymes that can utilize branched-chain acyl-CoA substrates and can therefore synthesize branched-chain fatty acids, thereby rescuing the lethal ΔyjaXΔyhfB deletion phenotype. […] The resulting three B. subtilis ΔyjaXΔyhfB mutant strains, each expressing one of the recombinant KASIII genes (due to the inclusion of the inducer IPTG in the media), were grown in the absence of exogenously supplied branched-chain fatty acids.

[6] = Spectrophotometric coupled assay (FabD/FabG, NADPH at 340 nm) of KASIII specific activity with acyl-CoA substrates; conditions: n.d. = not detectable; for Specific Activity with Isobutyryl-CoA: substrate isobutyryl-CoA
Method: The method comprises (i) incubating holo-ACP, malonyl-CoA, acyl-CoA, NADPH, and malonyl-CoA:ACP transacylase (FabD), (ii) adding KASIII and 3-ketoacyl-ACP reductase (FabG), and (iii) measuring the change in absorbance at 340 nm when NADPH is converted to NADP+ during reduction of 3-ketoacyl-ACP to 3-hydroxyl-acyl ACP by FabG.
Activity of A. acidocaldarius KASIII with different acyl-CoA substrates (acetyl-CoA, isobutyryl-CoA and 3-hydroxybutyryl-CoA (Sigma-Aldrich)) was ascertained by a coupled assay. The assay was performed in 96-well plate format with three replicates for each reaction condition. In a total volume of 100 μl for each reaction the reaction mix containing 100 μM holo-ACP, 200 μM malonyl-CoA, 10 mM DTT, 50 μM acyl-CoA substrate (either acetyl-CoA, isobutyryl-CoA or 3-hydroxy-butyryl-CoA) and 200 μM NADPH in 0.1 M sodium phosphate buffer (pH 7.2) was pre-incubated with 60 μg of FabD for two minutes. The reaction was started by the addition of 30 μg of FabG and varying concentrations of A. acidocaldarius (0.5-15 μg). Change in absorbance of NADPH that was being converted to NADP^+ during reduction of 3-ketoacyl-ACP 3-hydroxy-acyl-ACP by FabG was recorded at 340 nm using a Biotek multi-plate reader.
Spectrophotometric assay was used to assess the activity of A. acidocaldarius KASIII with various acyl-CoA substrates. The assay coupled the appearance of the KASIII-product (3-ketoacyl-ACP) to the oxidation of NADPH, catalyzed by 3-ketoacyl-ACP reductase (FabG).
KASIII enzymatic activity was ascertained via spectrophotometric assay, which coupled the appearance of 3-ketoacyl-ACP to the oxidation of NADPH, using the E. coli FabG protein to reduce 3-ketoacyl-ACP to 3-hydroxyacyl-ACP. The assay was performed in a 96-well plate-format with three technical replicates for each reaction condition. In a total volume of 100 μl for each reaction, the reaction mix contained 100 μM holo-ACP, 200 μM malonyl-CoA, 10 mM DTT, 50 μM acyl-CoA substrate, and 200 μM NADPH in 0.1 M sodium phosphate buffer (pH 7.2). This mixture was pre-incubated with 60 μg of FabD for two minutes to initiate synthesis of malonyl-ACP from malonyl-CoA and holo-ACP. The reaction was then started by the addition of 30 μg of FabG and varying concentrations of KASIII enzyme (0.5-15 μg). As KASIII catalysed the condensation of acyl-CoA with malonyl-ACP to form 3-ketoacyl-ACP, FabG reduced the 3-ketoacyl-ACP intermediate to 3-hydroxy-acyl ACP in the presence of NADPH.

In the case of “E. coli KASIII Wild-type: E. coli 3-ketoacyl-ACP synthase III encoded by fabH, GenBank AAG55837.1, amino acid sequence SEQ ID NO:62”, the “Kinetic parameters (whole line)” value ([1]; substrate 3-OH-butyryl-CoA) is reported as “not a substrate”, the Km ([1]; substrate acetyl-CoA) is reported as 96.8 ± 4.7 µM and the “Specific Activity” value ([1]; substrate acetyl-CoA) is reported as 447 ± 68 nmol/mg/min. The Vmax ([1]; substrate acetyl-CoA) was 0.00033 ± 1e-05 µmol/s, the kcal ([1]; substrate acetyl-CoA) was 0.0214 ± 0.00093 s⁻¹ and the “Kinetic parameters (whole line)” value ([1]; substrate isobutyryl-CoA) was “not a substrate”. The “Thermal shift: increase in Tm with acetyl-CoA” value ([2]; listed as ecKASIII) was “bound; also recorded: positive thermal shifts”, the “Thermal shift: increase in Tm with propionyl-CoA” value ([2]; listed as ecKASIII) was “bound; also recorded: positive thermal shifts” and the “Melting temperature (Tm) without ligand” value [3] was 55.0 ± 0.18 °C. The “Melting temperature (Tm) without ligand” value ([3]; listed as ecKASIII) was ~55.0 °C, the “STD amplification factor (STDaf), HAP proton of acetyl-CoA” value [4] was ~6.0 and the “STD amplification factor (STDaf), HB proton of isobutyryl-CoA” value [4] was ~4.0. The “STD amplification factor (STDaf), HT proton of acetyl-CoA” value [4] was ~5.0, the “STD amplification factor (STDaf), HT proton of isobutyryl-CoA” value [4] was 2.5 and the “Rescue of the lethal phenotype of the B. subtilis ΔyjaXΔyhfB mutant strain” value [5] was “could not”. The “Specific Activity with Acetyl-CoA” value ([6]; substrate acetyl-CoA) was 447 ± 68 nmol/min/mg and the “Specific Activity with Isobutyryl-CoA” value [6] was 36 ± 14 nmol/min/mg.

B1: B. subtilis KASIIIb Wild-type: B. subtilis KASIIIB, bfabHB (yhfB) locus, GenBank CAB12857.1, amino acid sequence SEQ ID NO:66 (protein)
chain: MSKAKITAIGTYAPSRRLTNADLEKIVDTSDEWIVQRTGMRERRIADEHQFTSDLCIEAVKNLKSRYKGTLDDVDMILVATTTSDYAFPSTACRVQEYFGWESTGALDINATCAGLTYGLHLANGLITSGLHQKILVIAGETLSKVTDYTDRTTCVLFGDAAGALLVERDEETPGFLASVQGTSGNGGDILYRAGLRNEINGVQLVGSGKMVQNGREVYKWAARTVPGEFERLLHKAGLSSDDLDWFVPHSANLRMIESICEKTPFPIEKTLTSVEHYGNTSSVSIVLALDLAVKAGKLKKDQIVLLFGFGGGLTYTGLLIKWGM
modifications: B. subtilis
In the case of B1, the “Thermal shift: increase in Tm with 3-hydroxybutyryl-CoA” value [2] is reported as “thermally stabilized”, the “Thermal shift: increase in Tm with butyryl-CoA” value [2] is reported as ≥ 6 °C and the “Thermal shift: increase in Tm with crotonyl-CoA” value [2] is reported as ≥ 6 °C. For the same molecule, the “Thermal shift: increase in Tm with isobutyryl-CoA” value [2] was ≥ 6 °C, the “Thermal shift: increase in Tm with isovaleryl-CoA” value [2] was ≥ 6 °C and the “Thermal shift: increase in Tm with methylmalonyl-CoA” value [2] was ≥ 6 °C. For the same molecule, the “Thermal shift: increase in Tm with phenylacetyl-CoA” value [2] was ≥ 6 °C, the “Thermal shift: increase in Tm with propionyl-CoA” value [2] was ≥ 6 °C and the “Thermal shift: increase in Tm with benzoyl-CoA” value ([2]; listed as bsKASIIIb) was “destabilized the bsKASIIIb protein”. For the same molecule, the “Thermal shift: increase in Tm with hexanoyl-CoA” value ([2]; listed as bsKASIIIb) was “destabilized the bsKASIIIb protein”, the “Melting temperature (Tm) without ligand” value [3] was 48.7 ± 0.24 °C and the “Melting temperature (Tm) without ligand” value ([3]; listed as bsKASIIIb) was ~48.7 °C. For the same molecule, the “Specific Activity with Isobutyryl-CoA” value [6] was 279 ± 8 nmol/min/mg.
